Experimental data from publication PMC8557155 (Annals of Nuclear Medicine, 2021).
“Also recorded” adds a separate entry of the source.

Experiment: Safety and tolerability (TEAEs, NCI CTCAE v4.0, DLT)
Assay type: in vivo, human (Japanese patients)
Protocol: Safety was evaluated based on adverse events, laboratory tests, vital signs, physical examination, arterial oxygen saturation (SpO2), 12-lead electrocardiogram (ECG), body weight, and Eastern Cooperative Oncology Group (ECOG) performance status. Toxicity was evaluated according to the NCI CTCAE criteria version 4.0 14). Blood count and liver and kidney biochemistry examinations were performed just prior to the treatment and 5 days, 2, 4, 6, and 8 weeks after the first administration (Course 1). In addition, the examinations were performed the second, third, fourth administration (Courses 2, 3, 4), and as per routine clinical follow-up thereafter.
Course 2 treatment and subsequent courses were initiated for subjects who completed the dose-limiting toxicity (DLT) observation period (up to Day 56 of Course 1) without experiencing DLT and who met the eligibility criteria. […] The study treatment was considered tolerable when the number of subjects who experienced DLT was zero or one per six subjects. The appropriateness of DLT, as assessed by the investigator or sub-investigator, was confirmed by the clinical trial medical expert. All adverse events and serious adverse events, reported spontaneously or non-spontaneously, were collected during the study.

[1] = TEAE by severity, n = 6, CTCAE v4.0, 4 × 7.4 GBq + amino acid solution + octreotide LAR

Q: Which results are given for `C[C@@H](O)[C@H](NC(=O)[C@@H]1CSSC[C@H](NC(=O)[C@@H](Cc2ccccc2)NC(=O)CN2CCN(CC(=O)O)CCN(CC(=O)O)CCN(CC(=O)O)CC2)C(=O)N[C@@H](Cc2ccc(O)cc2)C(=O)N[C@H](Cc2c[nH]c3ccccc23)C(=O)N[C@@H](CCCCN)C(=O)N[C@@H]([C@@H](C)O)C(=O)N1)C(=O)O` [177Lu-DOTATATE, ^177Lu-DOTA^0-Tyr^3-octreotate, metal not drawn]?
A: Dose-limiting toxicities (DLT) (DLT observation period up to Day 56 of Course 1, n = 6): no dose-limiting toxicities; also recorded: no DLT; ALT increased, Grade 1 [1]: 1 (16.7) n (%); ALT increased, Grade 2 [1]: 0 n (%); ALT increased, Grade 3 [1]: 0 n (%); ALT increased, Grade 4 [1]: 0 n (%); AST increased, Grade 1 [1]: 1 (16.7) n (%); AST increased, Grade 2 [1]: 0 n (%); AST increased, Grade 3 [1]: 0 n (%); AST increased, Grade 4 [1]: 0 n (%); Abdominal distension, Grade 1 [1]: 3 (50.0) n (%); Abdominal distension, Grade 2 [1]: 0 n (%); Abdominal distension, Grade 3 [1]: 0 n (%); Abdominal distension, Grade 4 [1]: 0 n (%); Abdominal pain, Grade 1 [1]: 1 (16.7) n (%); Abdominal pain, Grade 2 [1]: 0 n (%); Abdominal pain, Grade 3 [1]: 0 n (%); Abdominal pain, Grade 4 [1]: 0 n (%); All treatment emergent adverse events (TEAEs), Grade 1 [1]: 0 n (%); All treatment emergent adverse events (TEAEs), Grade 2 [1]: 4 (66.7) n (%); All treatment emergent adverse events (TEAEs), Grade 3 [1]: 2 (33.3) n (%); All treatment emergent adverse events (TEAEs), Grade 4 [1]: 0 n (%); Alopecia, Grade 1 [1]: 3 (50.0) n (%); Alopecia, Grade 2 [1]: 0 n (%); Alopecia, Grade 3 [1]: 0 n (%); Alopecia, Grade 4 [1]: 0 n (%); Blood and lymphatic system disorders (SOC), Grade 1 [1]: 0 n (%); Blood and lymphatic system disorders (SOC), Grade 2 [1]: 1 (16.7) n (%); Blood and lymphatic system disorders (SOC), Grade 3 [1]: 2 (33.3) n (%); Blood and lymphatic system disorders (SOC), Grade 4 [1]: 0 n (%); CPK increased, Grade 1 [1]: 0 n (%); CPK increased, Grade 2 [1]: 1 (16.7) n (%); CPK increased, Grade 3 [1]: 0 n (%); CPK increased, Grade 4 [1]: 0 n (%); Chest discomfort, Grade 1 [1]: 1 (16.7) n (%); Chest discomfort, Grade 2 [1]: 0 n (%); Chest discomfort, Grade 3 [1]: 0 n (%); Chest discomfort, Grade 4 [1]: 0 n (%); Chest pain, Grade 1 [1]: 1 (16.7) n (%); Chest pain, Grade 2 [1]: 0 n (%); Chest pain, Grade 3 [1]: 0 n (%); Chest pain, Grade 4 [1]: 0 n (%); Cholesterol increased, Grade 1 [1]: 0 n (%); Cholesterol increased, Grade 2 [1]: 1 (16.7) n (%); Cholesterol increased, Grade 3 [1]: 0 n (%); Cholesterol increased, Grade 4 [1]: 0 n (%); Constipation, Grade 1 [1]: 2 (33.3) n (%); Constipation, Grade 2 [1]: 0 n (%); Constipation, Grade 3 [1]: 0 n (%); Constipation, Grade 4 [1]: 0 n (%); Creatinine increased, Grade 1 [1]: 1 (16.7) n (%); Creatinine increased, Grade 2 [1]: 0 n (%); Creatinine increased, Grade 3 [1]: 0 n (%); Creatinine increased, Grade 4 [1]: 0 n (%); Decreased appetite, Grade 1 [1]: 3 (50.0) n (%); Decreased appetite, Grade 2 [1]: 1 (16.7) n (%); Decreased appetite, Grade 3 [1]: 0 n (%); Decreased appetite, Grade 4 [1]: 0 n (%); Diarrhea, Grade 1 [1]: 3 (50.0) n (%); Diarrhea, Grade 2 [1]: 2 (33.3) n (%); Diarrhea, Grade 3 [1]: 0 n (%); Diarrhea, Grade 4 [1]: 0 n (%); Dizziness, Grade 1 [1]: 1 (16.7) n (%); Dizziness, Grade 2 [1]: 0 n (%); Dizziness, Grade 3 [1]: 0 n (%); Dizziness, Grade 4 [1]: 0 n (%); Dysgeusia, Grade 1 [1]: 0 n (%); Dysgeusia, Grade 2 [1]: 1 (16.7) n (%); Dysgeusia, Grade 3 [1]: 0 n (%); Dysgeusia, Grade 4 [1]: 0 n (%); Dyshidrotic eczema, Grade 1 [1]: 0 n (%); Dyshidrotic eczema, Grade 2 [1]: 1 (16.7) n (%); Dyshidrotic eczema, Grade 3 [1]: 0 n (%); Dyshidrotic eczema, Grade 4 [1]: 0 n (%); Gastrointestinal disorders (SOC), Grade 1 [1]: 4 (66.7) n (%); Gastrointestinal disorders (SOC), Grade 2 [1]: 2 (33.3) n (%); Gastrointestinal disorders (SOC), Grade 3 [1]: 0 n (%); Gastrointestinal disorders (SOC), Grade 4 [1]: 0 n (%); General disorders and administration site conditions (SOC), Grade 1 [1]: 5 (83.3) n (%); General disorders and administration site conditions (SOC), Grade 2 [1]: 0 n (%); General disorders and administration site conditions (SOC), Grade 3 [1]: 0 n (%); General disorders and administration site conditions (SOC), Grade 4 [1]: 0 n (%); Gingivitis, Grade 1 [1]: 1 (16.7) n (%); Gingivitis, Grade 2 [1]: 0 n (%); Gingivitis, Grade 3 [1]: 0 n (%); Gingivitis, Grade 4 [1]: 0 n (%); Headache, Grade 1 [1]: 1 (16.7) n (%); Headache, Grade 2 [1]: 0 n (%); Headache, Grade 3 [1]: 0 n (%); Headache, Grade 4 [1]: 0 n (%); Hyperuricemia, Grade 1 [1]: 1 (16.7) n (%); Hyperuricemia, Grade 2 [1]: 0 n (%); Hyperuricemia, Grade 3 [1]: 0 n (%); Hyperuricemia, Grade 4 [1]: 0 n (%); Hypocalcemia, Grade 1 [1]: 0 n (%); Hypocalcemia, Grade 2 [1]: 1 (16.7) n (%); Hypocalcemia, Grade 3 [1]: 0 n (%); Hypocalcemia, Grade 4 [1]: 0 n (%); Immune system disorders (SOC), Grade 1 [1]: 1 (16.7) n (%); Immune system disorders (SOC), Grade 2 [1]: 0 n (%); Immune system disorders (SOC), Grade 3 [1]: 0 n (%); Immune system disorders (SOC), Grade 4 [1]: 0 n (%); Infections and infestations (SOC), Grade 1 [1]: 2 (33.3) n (%); Infections and infestations (SOC), Grade 2 [1]: 1 (16.7) n (%); Infections and infestations (SOC), Grade 3 [1]: 0 n (%); Infections and infestations (SOC), Grade 4 [1]: 0 n (%); Investigations (SOC), Grade 1 [1]: 1 (16.7) n (%); Investigations (SOC), Grade 2 [1]: 4 (66.7) n (%); Investigations (SOC), Grade 3 [1]: 0 n (%); Investigations (SOC), Grade 4 [1]: 0 n (%); Leukopenia, Grade 1 [1]: 0 n (%); Leukopenia, Grade 2 [1]: 2 (33.3) n (%); Leukopenia, Grade 3 [1]: 0 n (%); Leukopenia, Grade 4 [1]: 0 n (%); Lymphopenia, Grade 1 [1]: 0 n (%); Lymphopenia, Grade 2 [1]: 1 (16.7) n (%); Lymphopenia, Grade 3 [1]: 2 (33.3) n (%); Lymphopenia, Grade 4 [1]: 0 n (%); Malaise, Grade 1 [1]: 4 (66.7) n (%); Malaise, Grade 2 [1]: 0 n (%); Malaise, Grade 3 [1]: 0 n (%); Malaise, Grade 4 [1]: 0 n (%); Metabolism and nutrition disorders (SOC), Grade 1 [1]: 3 (50.0) n (%); Metabolism and nutrition disorders (SOC), Grade 2 [1]: 2 (33.3) n (%); Metabolism and nutrition disorders (SOC), Grade 3 [1]: 0 n (%); Metabolism and nutrition disorders (SOC), Grade 4 [1]: 0 n (%); Musculoskeletal and connective tissue disorders (SOC), Grade 1 [1]: 1 (16.7) n (%); Musculoskeletal and connective tissue disorders (SOC), Grade 2 [1]: 0 n (%); Musculoskeletal and connective tissue disorders (SOC), Grade 3 [1]: 0 n (%); Musculoskeletal and connective tissue disorders (SOC), Grade 4 [1]: 0 n (%); Musculoskeletal pain, Grade 1 [1]: 1 (16.7) n (%); Musculoskeletal pain, Grade 2 [1]: 0 n (%); Musculoskeletal pain, Grade 3 [1]: 0 n (%); Musculoskeletal pain, Grade 4 [1]: 0 n (%); Nasopharyngitis, Grade 1 [1]: 2 (33.3) n (%); Nasopharyngitis, Grade 2 [1]: 0 n (%); Nasopharyngitis, Grade 3 [1]: 0 n (%); Nasopharyngitis, Grade 4 [1]: 0 n (%); Nausea, Grade 1 [1]: 3 (50.0) n (%); Nausea, Grade 2 [1]: 0 n (%); Nausea, Grade 3 [1]: 0 n (%); Nausea, Grade 4 [1]: 0 n (%); Nervous system disorders (SOC), Grade 1 [1]: 3 (50.0) n (%); Nervous system disorders (SOC), Grade 2 [1]: 1 (16.7) n (%); Nervous system disorders (SOC), Grade 3 [1]: 0 n (%); Nervous system disorders (SOC), Grade 4 [1]: 0 n (%); Decreased appetite, frequency (all grades) (TEAE, n = 6): 66.7%; Diarrhea, frequency (all grades) (TEAE, n = 6): 83.3%; Leukopenia, frequency (all grades) (TEAE, n = 6): 33.3%; Lymphopenia, frequency (all grades) (TEAE, n = 6): 50%; Malaise, frequency (all grades) (TEAE, n = 6): 66.7%; Nausea, frequency (all grades) (TEAE, n = 6): 50%; Thrombocytopenia, frequency (all grades) (TEAE, n = 6): 33.3%; Lymphocyte, erythrocyte, and leukocyte counts (after each treatment, n = 6): gradually decreased; Abdominal distension, frequency (all grades) (in vivo): 50%; Alopecia, frequency (all grades) (in vivo): 50%; Blood creatinine level increased, frequency (in vivo): 16.7%; Severe infections (in vivo): no severe infections; Severe lymphopenia during the follow-up period, frequency (in vivo): 16.7%; Secondary hematological malignant diseases (n = 6): no secondary hematological malignant diseases; Severe (grade ≥ 3) adverse events associated with non-hematological toxicities (n = 6): no severe (grade ≥ 3) adverse events
